Laboratory results from patent US20110311551A1 (INSERM, published 2011).

Experiments:
human serum albumin = target: T1, human serum albumin (human, UniProt P02768 25-609); test: EIA
T1 construct: also called HSA

[1] = target: T2, E2 region 480-494, PDQRPYCWHYPPKPC (Hepatitis C virus); test: ELISA with pentadecapeptides
T2 construct: also called E2 480-494; regions 480-494 of E2 as pentadecapeptide
T2 peptide: PDQRPYCWHYPPKPC

[2] = target: T3, peptides corresponding to the E2 region 686-697 (Hepatitis C virus); test: overlapping synthetic pentadecapeptides on a membrane, colorimetric immunoassay
T3 construct: 686-697 was counted over to 2-13 on that entry; also called E2 686-697
T3 peptide: STGLIHLHQNIV

[3] = target: T4, peptides corresponding to the 347-356 E1 region (Hepatitis C virus); test: as above
T4 construct: 347-356 was counted over to 5-14 on that entry; Made as overlapping pentadecapeptides on a membrane; also called E1 347-356

[4] = target: T5, peptides corresponding to the E2 region 612-626 (Hepatitis C virus); test: as above
T5 construct: 612-626 was counted over to 3-17 on that entry; also called E2 612-626
T5 peptide: PYRLWHYPCTINYTI

[5] = target: T6, E1 region 297-306, RHWTTQGCNC (Hepatitis C virus); test: overlapping octapeptides
T6 construct: Region found with overlapping octapeptides; also called E1 297-306
T6 peptide: RHWTTQGCNC

[6] = target: T7, E2 region 613-621, YRLWHYPCT (Hepatitis C virus); test: overlapping octapeptides
T7 construct: Region found with overlapping octapeptides; also called E2 613-621
T7 peptide: YRLWHYPCT

[7] = target: T8, E2 octapeptide 487-494, WHYPPKPC (Hepatitis C virus); test: octapeptides
T8 peptide: WHYPPKPC

[8] = target: T9, E2 octapeptide 479-486, GPDQRPYC (Hepatitis C virus); test: octapeptides
T9 peptide: GPDQRPYC

T1 sequence (P02768 25-609 limits assumed): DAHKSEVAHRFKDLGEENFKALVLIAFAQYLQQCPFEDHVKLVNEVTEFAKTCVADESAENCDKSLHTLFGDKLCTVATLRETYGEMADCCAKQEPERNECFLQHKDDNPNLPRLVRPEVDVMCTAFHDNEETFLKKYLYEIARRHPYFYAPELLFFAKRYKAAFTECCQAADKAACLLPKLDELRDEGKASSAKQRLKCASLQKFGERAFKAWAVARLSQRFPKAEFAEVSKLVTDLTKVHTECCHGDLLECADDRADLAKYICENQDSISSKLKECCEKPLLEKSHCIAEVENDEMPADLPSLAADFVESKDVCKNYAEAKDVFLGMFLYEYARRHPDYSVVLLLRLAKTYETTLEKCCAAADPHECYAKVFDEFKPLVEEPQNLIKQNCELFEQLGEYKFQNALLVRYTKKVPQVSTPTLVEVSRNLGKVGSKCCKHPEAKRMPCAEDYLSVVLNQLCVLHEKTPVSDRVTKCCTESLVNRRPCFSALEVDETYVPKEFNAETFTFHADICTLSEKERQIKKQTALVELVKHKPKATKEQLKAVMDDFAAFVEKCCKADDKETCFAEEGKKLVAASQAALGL

B1: monoclonal antibody D32.10 (antibody, V domains shown)
VH: EVQLQQSGAELVKPGASVKLSCTPSGFNIKDTYIHWVKQRPEQGLEWIGMINPANGNSNYDPKFQDKATITADTSSNTAYLQLSSLTSEDTAVYYCAEITTDFDVWGAGTTVTVSS
VL: NIVLTQSPPSLAVSLGQRATISCRASESVDSYGNSFLHWYQQKSGQPPKLLIYLASNLESGVPARFSGSGSRTDFTLTIDPLEADDAATYYCQQNNEAPFTFGSGTKLEIKR
notes: also called mAb D32.10; MAb D32.10
- binding result (human serum albumin): no binding
- binding result [1]: binds
- binding result [2]: no binding
- binding result [3]: no binding
- binding result [4]: binds
- binding result [5]: binds
- binding result [6]: binds
- binding result [7]: binds
- binding result [8]: binds
